Patent US20200283521A1 (GRANULAR THERAPEUTICS, published 2020)
Like-named read-outs stand apart in the source and are kept apart here.

Key:
Assay in all cases: direct ELISA on coated protein, IgG1
hOX40-Fc = biological target: T1, hOX40-Fc
T1 construct: member of the panel m9
T1 chain: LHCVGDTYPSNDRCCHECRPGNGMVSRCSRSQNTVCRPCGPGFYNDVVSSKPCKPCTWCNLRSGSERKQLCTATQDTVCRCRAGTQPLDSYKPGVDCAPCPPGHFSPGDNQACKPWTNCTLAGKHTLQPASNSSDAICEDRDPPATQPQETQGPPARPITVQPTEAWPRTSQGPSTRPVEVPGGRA

h4-1BB-Fc = biological target: T2, h4-1BB-Fc
T2 construct: member of the panel m9
T2 sequence (chain, as listed by the source limits assumed): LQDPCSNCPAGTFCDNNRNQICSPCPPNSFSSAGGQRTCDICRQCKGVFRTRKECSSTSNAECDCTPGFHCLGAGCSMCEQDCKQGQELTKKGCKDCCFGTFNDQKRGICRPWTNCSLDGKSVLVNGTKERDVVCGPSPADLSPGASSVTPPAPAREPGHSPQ

hVCAM-1 = biological target: T3, hVCAM-1 (human, UniProt P19320)
T3 construct: purified recombinant protein; member of the panel m9
T3 sequence (looked up): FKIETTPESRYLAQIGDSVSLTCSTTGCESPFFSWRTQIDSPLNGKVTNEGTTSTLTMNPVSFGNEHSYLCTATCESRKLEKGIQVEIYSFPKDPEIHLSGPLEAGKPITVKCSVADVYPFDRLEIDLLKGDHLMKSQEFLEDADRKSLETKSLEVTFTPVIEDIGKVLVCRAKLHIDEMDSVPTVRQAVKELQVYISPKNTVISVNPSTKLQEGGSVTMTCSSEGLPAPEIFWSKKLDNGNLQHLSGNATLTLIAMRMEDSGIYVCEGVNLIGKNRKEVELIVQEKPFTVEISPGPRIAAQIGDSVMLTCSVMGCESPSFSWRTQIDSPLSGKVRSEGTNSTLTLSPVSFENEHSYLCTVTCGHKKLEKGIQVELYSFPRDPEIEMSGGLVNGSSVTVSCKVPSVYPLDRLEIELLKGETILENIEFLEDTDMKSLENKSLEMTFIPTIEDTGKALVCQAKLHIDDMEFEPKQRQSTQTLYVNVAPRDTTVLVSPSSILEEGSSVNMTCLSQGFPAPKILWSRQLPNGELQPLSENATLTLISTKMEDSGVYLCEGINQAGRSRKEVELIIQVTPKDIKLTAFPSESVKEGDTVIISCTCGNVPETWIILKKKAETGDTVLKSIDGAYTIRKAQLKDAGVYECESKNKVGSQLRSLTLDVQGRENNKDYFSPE

hCMET-Fc [1] = biological target: T4, hCMET-Fc (The natural ectodomain is cleaved by furin after residue 307 into disulfide-linked alpha and beta chains. It is given here as one continuous stretch.)
T4 construct: member of the panel m9
T4 chain: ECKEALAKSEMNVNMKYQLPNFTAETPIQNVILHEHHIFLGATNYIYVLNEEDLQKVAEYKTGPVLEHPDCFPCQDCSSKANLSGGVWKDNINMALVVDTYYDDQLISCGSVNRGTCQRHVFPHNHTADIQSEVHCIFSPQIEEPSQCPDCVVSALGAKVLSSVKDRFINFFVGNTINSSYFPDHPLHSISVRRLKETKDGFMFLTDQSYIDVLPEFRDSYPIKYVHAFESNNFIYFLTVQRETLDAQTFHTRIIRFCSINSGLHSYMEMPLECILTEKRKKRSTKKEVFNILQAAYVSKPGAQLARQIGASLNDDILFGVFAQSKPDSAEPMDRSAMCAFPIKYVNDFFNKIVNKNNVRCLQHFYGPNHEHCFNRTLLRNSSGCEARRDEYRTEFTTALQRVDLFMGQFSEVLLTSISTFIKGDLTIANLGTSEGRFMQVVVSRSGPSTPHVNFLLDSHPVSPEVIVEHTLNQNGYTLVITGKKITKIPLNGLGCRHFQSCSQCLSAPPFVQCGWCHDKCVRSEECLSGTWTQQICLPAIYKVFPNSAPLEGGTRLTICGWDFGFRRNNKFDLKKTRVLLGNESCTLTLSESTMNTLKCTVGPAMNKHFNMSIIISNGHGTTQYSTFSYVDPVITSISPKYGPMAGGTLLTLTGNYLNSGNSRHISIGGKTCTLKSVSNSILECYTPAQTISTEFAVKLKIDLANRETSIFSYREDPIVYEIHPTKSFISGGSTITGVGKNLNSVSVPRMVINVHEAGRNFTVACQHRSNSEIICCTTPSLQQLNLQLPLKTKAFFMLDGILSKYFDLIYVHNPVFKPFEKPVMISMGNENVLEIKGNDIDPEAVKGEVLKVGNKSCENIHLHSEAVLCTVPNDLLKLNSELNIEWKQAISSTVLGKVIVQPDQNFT

hDR6-Fc = biological target: T5, hDR6-Fc (human, UniProt O75509)
T5 construct: Fc fusion; member of the panel m9
T5 sequence (looked up): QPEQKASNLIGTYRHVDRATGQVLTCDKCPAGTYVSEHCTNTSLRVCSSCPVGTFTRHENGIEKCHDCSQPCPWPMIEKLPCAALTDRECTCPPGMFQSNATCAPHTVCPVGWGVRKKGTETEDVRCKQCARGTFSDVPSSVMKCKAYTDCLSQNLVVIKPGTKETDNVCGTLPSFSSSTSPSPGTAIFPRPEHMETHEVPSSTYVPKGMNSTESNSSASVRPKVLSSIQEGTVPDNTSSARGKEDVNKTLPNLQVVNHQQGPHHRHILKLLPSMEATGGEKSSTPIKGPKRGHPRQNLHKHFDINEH

hCD4 = biological target: T6, hCD4 (human, UniProt P01730)
T6 construct: purified recombinant protein; member of the panel m9

hTWEAK-Fc = biological target: T7, hTWEAK-Fc (human, UniProt O43508)
T7 construct: Fc fusion; member of the panel m9
T7 sequence (looked up): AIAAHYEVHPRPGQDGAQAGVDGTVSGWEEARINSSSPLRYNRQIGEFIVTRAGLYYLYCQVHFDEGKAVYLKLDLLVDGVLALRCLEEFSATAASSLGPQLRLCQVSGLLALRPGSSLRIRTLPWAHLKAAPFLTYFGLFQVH

hBAFFR-Fc = biological target: T8, hBAFFR-Fc (human, UniProt Q96RJ3)
T8 construct: Fc fusion; member of the panel m9
T8 sequence (Q96RJ3 7-71 limits assumed): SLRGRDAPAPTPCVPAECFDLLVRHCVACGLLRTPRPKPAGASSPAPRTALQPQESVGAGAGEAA

hLTBR-Fc = biological target: T9, hLTBR-Fc (human, UniProt P36941)
T9 construct: Fc fusion; member of the panel m9
T9 sequence (P36941 28-227 limits assumed): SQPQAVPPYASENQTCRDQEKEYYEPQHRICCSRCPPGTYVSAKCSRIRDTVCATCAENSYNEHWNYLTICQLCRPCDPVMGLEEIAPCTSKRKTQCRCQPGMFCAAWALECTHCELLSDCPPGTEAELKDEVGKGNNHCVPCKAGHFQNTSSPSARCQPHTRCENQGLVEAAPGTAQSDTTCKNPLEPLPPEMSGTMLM

hCMET-Fc [2] = biological target: T4, hCMET-Fc

Measured: binding result

B1: MH5.22 (antibody, IgG1, V domains shown)
VH: QVQLVQSGAEVKKPGASVKVSCKASGYTFTDFYMNWVRQAPGQGLEWMGRIYPASGNTYYAQKFQGRVTMTRDTSTSTVYMELSSLRSEDTAVYYCARGVWYYDYWGQGTLVTVSS
VL: DIQMTQSPSSLSASVGDRVTITCRASQGIRTNLAWFQQKPGKAPKSLIYAASSLQSGVPSRFSGSGSGTDFTLTISSLQPEDFATYYCQQYANYPRTFGGGTKVEIK
notes: IgG1; also called C-KIT-MH5.22
not listed: hCMET-Fc [2]
no binding (tested: 1 µg/ml): all other assays above

B2: MH1, human IgG1 (antibody, V domains shown)
VH: QVQLVQSGAEVKKPGASVKVSCKASGYTFTDYYMNWVRQAPGQGLEWMGRIYPGSGNTYYAQKFQGRVTMTRDTSTSTVYMELSSLRSEDTAVYYCARGVYYYDYWGQGTLVTVSS
VL: DIQMTQSPSSLSASVGDRVTITCRASQGIRTNLAWFQQKPGKAPKSLIYAASSLQSGVPSRFSGSGSGTDFTLTISSLQPEDFATYYCQQYNSYPRTFGGGTKVEIK
notes: IgG1; also called IgG1-MH1
no binding (tested: 1 µg/ml): hCMET-Fc [2]
